# B1: laminin 511-E8 fragment: E8 fragment of human laminin α5β1γ1 (Nippi. Inc., 382-02413) (protein)
# chain 1: AAEDAAGQALQQADHTWATVVRQGLVDRAQQLLANSTALEEAMLQEQQRLGLVWAALQGARTQLRDVRAKKDQLEAHIQAAQAMLAMDTDETSKKIAHAKAVAAEAQDTATRVQSQLQAMQENVERWQGQYEGLRGQDLGQAVLDAGHSVSTLEKTLPQLLAKLSILENRGVHNASLALSASIGRVRELIAQARGAASKVKVPMKFNGRSGVQLRTPRDLADLAAYTALKFYLQGPEPEPGQGTEDRFVMYMGSRQATGDYMGVSLRDKKVHWVYQLGEAGPAVLSIDEDIGEQFAAVSLDRTLQFGHMSVTVERQMIQETKGDTVAPGAEGLLNLRPDDFVFYVGGYPSTFTPPPLLRFPGYRGCIEMDTLNEEVVSLYNFERTFQLDTAVDRPCARSKSTGDPWLTDGSYLDGTGFARISFDSQISTTKRFEQELRLVSYSGVLFFLKQQSQFLCLAVQEGSLVLLYDFGAGLKKAVPLQPPPPLTSASKAIQVFLLGGSRKRVLVRVERATVYSVEQDNDLELADAYYLGGVPPDQLPPSLRRLFPTGGSVRGCVKGIKALGKYVDLKRLNTTGVSAGCTADLLVGRAMTFHGHGFLRLALSNVAPLTGNVYSGFGFHSAQDSALLYYRASPDGLCQVSLQQGRVSLQLLRTEVKTQAGFADGAPHYVAFYSNATGVWLYVDDQLQQMKPHRGPPPELQPQPEGPPRLLLGGLPESGTIYNFSGCISNVFVQRLLGPQRVFDLQQNLGSVNVSTGCAPALQAQTPGLGPRGLQATARKASRRSRQPARHPA
# chain 2: LQHSAADIARAEMLLEEAKRASKSATDVKVTADMVKEALEEAEKAQVAAEKAIKQADEDIQGTQNLLTSIESETAASEETLFNASQRISELERNVEELKRKAAQNSGEAEYIEKVVYTVKQSAEDVKKTLDGELDEKYKKVENLIAKKTEESADARRKAEMLQNEAKTLLAQANSKLQLLKDLERKYEDNQRYLEDKAQELARLEGEVRSLLKDISQKVAVYSTCL
# chain 3: EANDILNNLKDFDRRVNDNKTAAEEALRKIPAINQTITEANEKTREAQQALGSAAADATEAKNKAHEAERIASAVQKNATSTKAEAERTFAEVTDLDNEVNNMLKQLQEAEKELKRKQDDADQDMMMAGMASQAAQEAEINARKAKNSVTSLLSIINDLLEQLGQLDTVDLNKLNEIEGTLNKAKDEMKVSDLDRKVSDLENEAKKQEAAIMDYNRDIEEIMKDIRNLEDIRKTLPSGCFNTPSIEKP
# Columns and labels:
# [1] = system: rabbit bullous keratopathy model; assay: Adhesion of injected cells to substrate after 24 hours in rabbit bullous keratopathy model, laminin with ROCK inhibitor; format: in vivo; details: average; 24 hours after injection of cultured RCEC into anterior chamber; Y-27632 100 μM in both groups, with or without laminin 511-E8 fragments 2.1 nM
# Method: A rabbit corneal endothelium was mechanically detached to make a bullous keratopathy model. Adhesion of injected cells to a substrate after 24 hours was compared between individuals injected with cultured rabbit corneal endothelial cells together with a ROCK inhibitor Y-27632 (+) (100 μM) into the anterior chamber and individuals injected with cells together with laminin 511-E8 fragments (2.1 nM) and Y-27632 (+) (100 μM). The rabbit was euthanized after 24 hours. Corneal tissue was extracted and subjected to phalloidin staining to evaluate the morphology and cell count of adhered cells.
# [2] = system: monkey bullous keratopathy model; assay: Cultured corneal endothelium transplantation in monkey bullous keratopathy model with laminin 511-E8 fragments; format: in vivo; details: cynomolgus monkey
# Method: A cynomolgus monkey corneal endothelium was mechanically detached using a 20 gauge silicone needle (Soft Tapered Needle; Inami & Co., Ltd., Tokyo, Japan) to make a bullous keratopathy model. In FIG. 9, […] cultured monkey corneal endothelial cells were injected with DMEM containing laminin 511-E8 fragments adjusted to a concentration of 2.1 nM into the anterior chamber of the bullous keratopathy model, which was maintained in a face-down posture for three hours. In FIG. 10, the Descemet's membrane was detached in a produced bullous keratopathy model and, similarly, 5.0×10^5 cultured monkey corneal endothelial cells were injected with DMEM containing laminin 511-E8 fragments adjusted to a concentration of 2.1 nM into the anterior chamber of the bullous keratopathy model, which was maintained in a face-down posture for three hours.
# The corneal thickness was measured with an ultrasound pachymeter (SP-2000; Tomey, Nagoya, Japan). When unmeasurable, 1200 μm, which is the measurable upper limit value, was used.
# p-Paxillin = assay: Western blot of cell adhesion associated protein p-Paxillin in corneal endothelial cells; format: cell-based, human; details: HCEC; laminin 511-E8 fragments 2.1 nM; three hours after seeding
# Method: (§1) The medium was completely removed from a culture dish culturing human corneal endothelial cells. The cells were washed twice with PBS (−). After washing, phosphate buffer was added, and the mixture was incubated for 5 minute at 37° C. (5% CO2). Subsequently, PBS (−) was removed and TrypLE™ Select (10×) (Life Technologies, A12177-01) was added. The mixture was incubated for 10 minutes at 37° C. (5% CO2). Opti-MEMI (Life Technologies, 31985-070) was then added to collect the cells. After collecting the cells, the cells were centrifuged for 3 minutes at 1200 rpm to make a cell suspension with Opti-MEM I. At this time, a laminin 511-E8 fragment free group was prepared as a control, as well as a group supplemented with laminin 511-E8 fragments so that the final concentration was 2.1 nM. At the same time, mouse IgG and integrin neutralizing antibody were added to the laminin 511-E8 fragment added group to adjust the final concentration to 2 μg/ml. After adjustment, cells were seeded on a 12-well plate at 1×10^5 cells/well and proteins were collected after three hours of seeding. Western blot was used to detect Phospho-FAK (Cell Signaling TECHNOLOGY, 8556S), FAK (Cell Signaling TECHNOLOGY, 32855), and p-Paxillin (Cell Signaling TECHNOLOGY, 2541S). The dilution factor for each antibody was 1:1000. The densitometry was quantified using Image J.
# p-FAK = assay: Western blot of cell adhesion associated protein Phospho-FAK in corneal endothelial cells; format: cell-based, human; details: HCEC; laminin 511-E8 fragments 2.1 nM; three hours after seeding
# Method: as §1
molecule,measurement,setting,value
B1,adhering cell density,[1],1662.8 cells/mm^2
same,cornea appearance (anterior ocular segment pictures),"[2]; Descemet's membrane detached, 5.0x10^5 MCEC with laminin 511-E8 2.1 nM, no coating",not transparent or healed
same,corneal thickness becoming thin,[2]; Descemet's membrane detachment group,did not become thin
same,healing of bullous keratopathy (anterior ocular segment pictures),"[2]; no Descemet's membrane detachment, 5.0x10^5 MCEC with laminin 511-E8 2.1 nM, up to Day 14",heal bullous keratopathy
same,corneal thickness becoming thin,[2]; without Descemet's membrane detachment,it did
same,p-Paxillin,p-Paxillin,promoted
same,p-FAK,p-FAK,promoted

# — patent US11633477B2, “Treatment of cornea using laminin” (KYOTO PREFECTURAL PUBLIC UNIVERSITY CORPORATION, priority 2014, dated 2023)
